This passage reports Kd results from publication PMC10557622 (bioRxiv, 2023).

The target in test [1] is CENP-A/H4 (UniProt P49450;P62805). Kind of test: BLI.
Test [2] addresses 6xHis-MBP-CENP-C 1-600-SpyCatcher (UniProt Q03188 1-600). Kind of test: BLI.

Chain of 6xHis-MBP-CENP-C 1-600-SpyCatcher (Q03188 1-600): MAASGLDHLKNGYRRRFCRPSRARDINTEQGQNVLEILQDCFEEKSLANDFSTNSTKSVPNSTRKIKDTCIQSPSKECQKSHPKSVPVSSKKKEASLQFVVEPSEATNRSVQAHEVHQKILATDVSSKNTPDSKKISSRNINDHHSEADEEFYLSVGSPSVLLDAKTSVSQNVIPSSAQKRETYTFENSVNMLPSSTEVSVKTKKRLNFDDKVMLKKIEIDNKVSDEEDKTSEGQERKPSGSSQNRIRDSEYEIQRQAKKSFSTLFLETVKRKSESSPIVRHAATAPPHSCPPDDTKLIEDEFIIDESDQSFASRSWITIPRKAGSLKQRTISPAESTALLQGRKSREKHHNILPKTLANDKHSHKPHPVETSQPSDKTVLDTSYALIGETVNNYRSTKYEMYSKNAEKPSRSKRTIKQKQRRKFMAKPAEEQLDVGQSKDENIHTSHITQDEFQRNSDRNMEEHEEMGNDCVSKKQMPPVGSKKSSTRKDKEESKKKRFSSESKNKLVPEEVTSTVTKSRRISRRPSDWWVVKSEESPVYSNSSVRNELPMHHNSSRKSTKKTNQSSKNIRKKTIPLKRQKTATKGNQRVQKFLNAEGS

B1: purified BANF1 (natural protein)
chain: MTTSQKHRDFVAEPMGEKPVGSLAGIGEVLGKKLEERGFDKAYVVLGQFLVLKKDEDLFREWLKDTCGANAKQSRDCFGCLREWCDAFL
Usually Kd stands for a measure of binding affinity in units of concentration. As to B1, the affinity in test [1], expressed as Kd, was 290 nM.

B2: recombinant Human EMD protein with N-terminal His-tag (natural protein)
chain: MDNYADLSDTELTTLLRRYNIPHGPVVGSTRRLYEKKIFEYETQRRRLSPPSSSAASSYSFSDLNSTRGDADMYDLPKKEDALLYQSKGYNDDYYEESYFTTRTYGEPESAGPSRAVRQSVTSFPDADAFHHQVHDDDLLSSSEEECKDRERPMYGRDSAYQSITHYRPVSASRSSLDLSYYPTSSSTSFMSSSSSSSSWLTRRAIRPENRAPGAGLGQDRQVPLWGQLLLFLVFVIVLFFIYHFMQAEEGNPF
Regarding B2, the Kd in test [1] came out at 137 nM; in test [2] it was 404 nM.
